{"source": "a protein production outcome set (Wang et al. 2014)", "experiment": "label from the status in PepcDB records", "data": [{"sequence": "MQSPNNDYNATSKRGWFTRFLDGVEWLGNLLPHPITLFAVFCLFIIFISGIAAYFGVSAVDPRDGETVIKAVSLLNAEGIQRIVTNLVTNFTGFTPLGTVLVALLGVGVAERSGLISAAMRGLVMKAPPRLVTVTIVFAGVISNTAAELGYVVLVPLAAMIFYGLGRHPLAGLSAAFAGVSAGYSANLLIGTVDPLLSGITEEAAKIIDPAYTVGAEANWYFMMVSTFLIAIMGALITDKIVEPKLGKYNKDEASIDLSDQSSMDPLNKQEKRGLIYAGLSVLVLAGILALTVVPEWGILRHPETGDVKGSPFLKGVVVYIFFFFAIPGFVYGRTVETMRNDRDVIDAMSHSMSTMGMYIVLVFFAAQFVNFFKWTNFGTIFAINGAEFLTNIGMTGPIIFLFFIMVCGFVNLMLGSASAQWAITAPIFVPMLMLVGYSPEVIQAAYRIGDSVTNVITPMMSYFGLILAVAARYKKDLGIGTLVAMMLPYSMFFFVGWSVLFFLWVFVFGFPVGPAAPTYYN", "values": [{"measurement": "protein production", "result": "not failed"}]}, {"sequence": "MADFQVVVGDDDGTAYSFEVDGQDANRFIGRAIGETVDGDAVGLPGYELEITGGSDQSGRPMHGDINGAETAAILSEGGVGFNPTVDGERKRVTVRGAEVSEDTRQINASIVSRGEQSIDDLLGGEDDE", "values": [{"measurement": "protein production", "result": "failed"}]}, {"sequence": "MMREFEIERQFNIKIEYIKPNKGVYFVKTNKGNKCLKKINYGIQKLLFVYAAKEHLINNGFKYVDKYCLNTEGNPYALVNEDIYTLSEWIEGRECSFYDTEDLVKASKTLAKMHECSKGYEPPENSKLKSDLGRWPHLIEKRVKALDKMRDMARKKGNKKDFDMNYIKNVDFFKEQGIKSMNVLKNSKYESLCAVAEEEKGFCHHDYTYHNIIINNEDNVYVIDFDYCKRELRAYDISNFMIKVLKRSNWSMKTAELILDSYSSISKLDDDEYGVIYAFLIFPQRFWRLANRYYYNEVNWGQNTFNNKMEELIEERERYIKFIEDFREAYNLQ", "values": [{"measurement": "protein production", "result": "failed"}]}, {"sequence": "MSLLTLAFNPQPRAKTYCSGPILRVSGVWAVKILYIVLDGAADSPTSPRKTLEEASKPNIDSLGSHAVCGMVYTVKPGVAPQSDYATLSLLGYNPDEYYPGRGPLEAFGAGIEMRRGDIALRANFATVDPGTLRIIDRRVGRSLTSREARELASAVDGMELEDGEGTALFRATIGHRGVLVLRHRSKPLSDAISNTDPAYERRGRFSVALEKYEPFIKLSNPLVEDEAAVLAARMLNEFTLKAVEILDSHPVNLAREKRGLLKANAILSRDAGGLPEEKPPSFQERFGLRGASIVEMVVERGISRYIGLDDIRVEIEGRAREEVYREEAARAVEALETHDLVYVHLKGPDEPGHDGSFEGKIRAVEDIDKHFFAPLLDRLSSAGLEPAFVVTSDHATPWDVGAHSGDPVPLMISHQSIQGSIGKFSETVCLRGRLGTIIGGYRIIPKTLSLLAGLEHHHHHH", "values": [{"measurement": "protein production", "result": "not failed"}]}, {"sequence": "MKPLHLKLNNFGPFLKEEIDFSKIDNNELFLISGKTGSGKTMIFDAMTYALFGKASTEQREENDLRSHFADGKQPMSVTFEFQLNHRIYKVHRQGPYIKEGNTTKTNAKFDVFEMVDGKYEIRESKVISGTQFIIELLGVNADQFRQLFILPQGEFKRFLISNSREKQGILRTLFDSEKFEAIREILKEELKKEKAQIENRYQQIDLLWQEIESFDDDKIKGLLELAT", "values": [{"measurement": "protein production", "result": "failed"}]}, {"sequence": "MANVDRRQMLLLSGLGATAAVLPVPRAAAVPNQTAASYVFADEFDGPAGSAPSAAKWTIAKARETIQDPTYWEQPGRIGQYRNDRRNVFLDGKSNLVIRAAKDGDTYYSAKLASVWEGGAGHTWEARIKFNCLTAGAWPAFWLGNTGEGELDIIEWYGNGSWPSATTVHAKSNGGEWKTHNIAVDNGWHRWRTQWDAEGARFWLDYTDGAQPYFEVAASSLPDWPFDQPGYTMFVVLNLAVAGSGGGDPSGGTYPADMLVDWVRVW", "values": [{"measurement": "protein production", "result": "not failed"}]}, {"sequence": "MVINIRRSRPDEGDKLTAIWCRSVDATHDFLTKAYRKELEEMVRAFLPEAPLWVAVSTEDQPIAFMLLTGDHMDALFVDPDVRGCGVGKLLIEHALSLTPKLTTNVNEQNEQAVGFYQKMGFRVTGRSETDDLGQPYPLLNLMYEQQAEADYD", "values": [{"measurement": "protein production", "result": "not failed"}]}, {"sequence": "MQSNLLAVLFALASALTIAWGTVVRHRIALRTPKDGSLRSSPLLNALMTPMWWAGMSTAMLAYFLQTVALGFGTLLVVQPVLVLSLMFTLPLSARFNGYRLRRTEIFWATLLTVAVGIMIVLGRPLPGNPHPPLDRWIPVLLVGVAVMGGMWLLAEYVLKKDKALILGLVTGALFGYVAVMSKAAVDLFVHQGITGLILNWEGYGLILTALLGTIVQQYSFNAGELQKSLPAMTIAEPIVAFSLGYLVLGEKFQVVDWEWIAMGIALLVMIVSTIALSRTSTMPAGSKR", "values": [{"measurement": "protein production", "result": "failed"}]}, {"sequence": "TKKDVHDLFLNHVNSNAVKTRKMMGEYIIYYDSVVIGGLYDNRLLVKATKSVRHQLQDNTLVSPYPGAKEMILIPDITEAINLTNLFELIKNDLKN", "values": [{"measurement": "protein production", "result": "failed"}]}, {"sequence": "MSNYNVSLVGPAPWGFRLQGGKDFNMPLTISSLKDGGKASQAHVRIGDVVLSIDGISAQGMTHLEAQNKIKACTGSLNMTLQRASAAAKSEPVAVQKGEPKEVVKPVPITSPAVSKVTSTTNMAYNKVPRPFGSVSSPKVTSIPSPSSAFTPAHAATSSHASPPPVAAVTPPPLSASGLHASANPSAAQCSSPPNTGKPAVHVPRQPTVTSVCSESAQELAEGQRRGSQGDIKQQNGPPRKHIVERNTEFYHIPTHSDASKKRLIEDTEDWRPRTGTTQSRSFRILAQITGTEHLKESENDNAKKANSTPEPSQQSASPLSAAESLESPGSNRPVVAGLRSAAAFKPVGSTSVKSPSWQRPNQAAPSTGRISNSASSSGTGAPMKPAVGPPQPSDQDTLVQRAEHIPAGKRTPMCAHCNQAIRGPFLVALGKSWHPEEFNCAHCKNTMAYIGFVEEKGALYCELCYEKFFAPECGRCQRKILGEVINALKQTWHVSCFVCVACGKPIRNNVFHLEDGEPYCETDYYALFGTICRGCEFPIEAGDMFLEALGSTWHDTCFVCSVCCESLEGQTFFSKKDKPLCKKHAHSVNF", "values": [{"measurement": "protein production", "result": "failed"}]}, {"sequence": "MRHRGGRGFRGWWLASTILLLVAEKPSHGYELAERLAEFGIEIPGIGHMGNIYRVLADLEESGFLSTEWDTTVSPPRKIYRITPQGKLYLREILRSLEDMKRRIETLEERIKRVLQEE", "values": [{"measurement": "protein production", "result": "not failed"}]}, {"sequence": "MEESRESPAEHGYYMPAEWDSHAQTWIGWPERQDNWRHNALPAQRVFADVAKAISKFEPVTVCASPAQWENARKQLPEDIRVVEMSMNDSWFRDSGPTFIVRKRPVKLSSLNRNIAGIDWNFNAWGGANDGCYNDWSHDLLVSRKILALERIPRFQHSMILEGGSIHVDGEGTCLVTEECLLNKNRNPHMSKEQIEEELKKYLGVQSFIWLPRGLYGDEDTNGHIDNMCCFARPGVVLLSWTDDETDPQYERSVEALSVLSNSIDARGRKIQVIKLYIPEPLYMTEEESSGITQDGEAIPRLAGTRLAASYVNFYIANGGIIAPQFGDPIRDKEAIRVLSDTFPHHSVVGIENAREIVLAGGNIHCITQQQPAEPTSVAENGH", "values": [{"measurement": "protein production", "result": "not failed"}]}, {"sequence": "MPQNYPWLNTEQPLSIKQLNGRVVILDFWTYCCINCLHVLPDLKYLEQKYKDSLTVIGVHSAKFDNEQETENIRQAILRYDIEHPVLVDKDFRVWQEYAVRAWPTLMVIDPKGYVIGYVSGEGNRDKLDQLITQVIQEHQGAINFQQLSLTLEKQRQPLITPLAFPGKVLATPSGLFVADSGHHRIVVSDFNGEILHLIGNGKSGLTDGNFQEAQFSAPQGMAFDMENQILYLADTENHALRRVDINQQTVETIAGTGEQSRNIQPHGGVGLETALNSPWDLVNIENSLYIAMAGVHQIWQMDLASGVIKTYAGTGVEACLDASLTESAFAQPSGITNNEQELYIADSEISSIRGVGLVEPQEVRTVCGSGGLFGFGDVDGQGEDVRLQHCLGVEYFQNYLWVADTYNHKIKSVSPHTGNCQTVLGDGLAGLQNGQGKNTRFFEPSGLSAIDSYLYISDTNNHVIRRVDLRTLEVTTMQFNGLCAPDVCIPNNFLEHHHHHH", "values": [{"measurement": "protein production", "result": "not failed"}]}, {"sequence": "SQPDHGRLSPPEAPDRPTISTASETSVYVTWIPRGNGGFPIQSFRVEYKKLKKVGDWILATSAIPPSRLSVEITGLEKGISYKFRVRALNMLGESEPSAPSRPYVVSG", "values": [{"measurement": "protein production", "result": "not failed"}]}, {"sequence": "MTTGPALSSSEEGLMSEMPPAWCHTARADHSTPGTSPEMIPDTQGHWMPLRSRGLGALPGAFQAPQPLLSRLRHRLAPPRIVGTVSCRRLRTIVALGAARDSCTVGTQGRPGNSDLPAFPTSQVVRGKMGPGSQRTLVLLLLLLASPGARAFQSCLNKQQLLTTVRQLQQLLKGQETRFTEGIRNMKSRLTALQNTVSKMTPDAPPVSCPALDAPPNGKKFGSKYLVDHEVHFTCNPGFQLVGPSSVVCLANGTWTGEQPRCRDTSECSSQPCHNGGTCVEGVHHYRCICPPGKTGNRCQHQTQAAAPGGVAGDSAYSRAPRCAQVEREQHCSCEAGFHLSGTAGGHSVCQDVNECEIYGQEGRPRLCMHACVNTPGSYRCTCPSGYRILADGKSCEDVDECAGPQHMCPRGTTCINTGGGFQCVNPECPEGSGNISYVKTSPFQCERNPCPMDSRPCRHLPKTISFHYLSLPSNLKTPITLFRMATASVPGHPGPNSLRFGIVGGNSRGHFVMQRSDRQTGELILIQTLEGPQTLEVEVDMSEYLERSFQASHVSKVTIFVSRYDF", "values": [{"measurement": "protein production", "result": "failed"}]}, {"sequence": "MTEKHLIWDLPLRIFHWGFAATILAAWYTAEQGADLVEIHMQLGFVALALIAFRILWGLIGPKHARFSQFVPSPKSLLSYLRSPNTAKSTAGHNPLGALMVILMILLISAQAISGLFINDDVFSSGPYYGRISNELEKVMKFLHHNTFDFMIAAIVLHIAAITFYWRVKKENLVLPMITGKKTTAQVKSSDAIPHSKIILGCIVAVCCVIFVYWLVVVNAPVIEEFYY", "values": [{"measurement": "protein production", "result": "failed"}]}, {"sequence": "MCSTNKNLACCKGDNVFDGQINGNESYPQVVNKQLPPKVLEPIIQNKIVEIPKEVYLEKIVEVPQIKTVERIVEQIRPVIKYKNVYKPKIVYVEKVKNVDKIIYQEKIVEVPQIKTVEKIVEVPVYVNRERIITVPRYMVVEKVIPVLKTSKRESIMEVPEVNCPHIDISKEVEDKEEIPINELKENQTISLADEKEIQILNDLTSQKVDSNATINMEGEQDTTVDTITQENFCGTVSCNFLPNYPNFSKIGNPLCKGGPEKEKRFSSISIYKSKDSGFPSIRIAKTPQMFQRNLYCSYA", "values": [{"measurement": "protein production", "result": "failed"}]}, {"sequence": "MIKILGHHISTLSITLALYETLIFMCVLYSFIFIMSFFFNIPVPEKLSMVILLALTATIAAGSLGLYNQRLFGDFKEFIWRIALTLPLILLAVLFVSFAYGEITATDQSPFYLAAAFGIPAALLLVVLGRGICFRIPGIKAFRRRILVLGTGEMADRLAALETSQPYRHYEIIGFVALGDDPAPLGEKWRVFDRNCIETRHDLLKICADHNINEVIFAASERRRANSSTFGLPVWDLLECRLMGIHVAEYASFWERETGRIDLDHLRPGWLIFSEGFRNSSRRMIAKRFFDVITALLLVILSLPVLVAAAIAVKLSSPGPVFYRQERVGVNGKPFNLIKFRSMPIDAEKNGPVWGTVKDKRATGVGSLLRRTRIDEIPQVFNVLRGDMSFIGPRPERPVFVEELSRELDFYGERHAVRPGISGWAQINYPYGASVADAKQKLSYDLYYIKNGSLFLDIIILFQTFRVVLWPEGSKEKAGAVVR", "values": [{"measurement": "protein production", "result": "failed"}]}, {"sequence": "MTDNSQFHAASALVQAAHTVSVVGHLRPDADAIGSVAATVAALQQLGKDAVGAIGQLDSMPENLYTIPGASNIKFGDSLPESDLIIVVDCGSIERTGAFESIIVNNPDKVLVVDHHATNPGFGAVNLIDVEAESTTTILYDWFDAMSVQITPDIAHGLYAGLLTDTGCFRWGRPVMHDMAKELMEFGLDIRAISSALLDQTSVDDLRLVGQIVSRIELREAGPYTLAVLVADFDTINGRSRAVVEGLIEMVRAVEGADFGAVFKEYERGVYTVSLRSSNLSVASLAVHLGGGGHIPAAGYTARGTEIEALDTLIEATVTLGESLRSSAHVDVLEHHHHHH", "values": [{"measurement": "protein production", "result": "not failed"}]}, {"sequence": "SASLLDKAKDFVADKLTAIPKPEGSVTDVDLKDVNRDSVEYLAKVSVTNPYSHSIPICEISFTFHSAGREIGKGKIPDPGSLKAKDMTALDIPVVVSYSILFNLARDVGVDWDIDYELQIGLTIDLPVVGEFTIPISSKGEIKLPTFKDFF", "values": [{"measurement": "protein production", "result": "failed"}]}]}
